# Source: patent publication US20240218070A1 (MERUS N V, published 2024)
# T1: huFAP-His recombinant protein (R&D Systems cat. #3715-SE) (human, UniProt Q12884 26-760)
# T1 construct: Bought His-tagged recombinant protein; also called huFAP protein; human FAP (R&D, cat. No. 3715-SE)
# T1 sequence: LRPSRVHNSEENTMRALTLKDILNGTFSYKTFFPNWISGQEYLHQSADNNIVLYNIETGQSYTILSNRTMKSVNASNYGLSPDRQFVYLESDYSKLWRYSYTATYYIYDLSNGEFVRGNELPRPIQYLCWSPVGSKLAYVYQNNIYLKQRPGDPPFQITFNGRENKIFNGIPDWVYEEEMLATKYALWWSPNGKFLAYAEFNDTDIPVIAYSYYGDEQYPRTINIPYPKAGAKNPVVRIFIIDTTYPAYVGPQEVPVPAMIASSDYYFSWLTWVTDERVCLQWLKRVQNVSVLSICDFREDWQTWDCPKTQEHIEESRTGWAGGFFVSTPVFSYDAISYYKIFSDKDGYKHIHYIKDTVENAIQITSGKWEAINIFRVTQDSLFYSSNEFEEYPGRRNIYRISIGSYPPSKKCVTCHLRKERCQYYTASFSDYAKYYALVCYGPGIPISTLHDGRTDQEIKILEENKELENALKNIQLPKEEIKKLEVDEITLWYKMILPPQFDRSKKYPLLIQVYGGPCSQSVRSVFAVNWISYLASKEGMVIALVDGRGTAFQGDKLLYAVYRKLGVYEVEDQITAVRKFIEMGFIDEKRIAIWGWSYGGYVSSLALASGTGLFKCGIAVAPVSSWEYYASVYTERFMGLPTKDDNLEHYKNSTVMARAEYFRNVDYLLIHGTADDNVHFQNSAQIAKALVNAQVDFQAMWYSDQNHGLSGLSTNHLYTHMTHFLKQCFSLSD
# Experiments:
# [1] = target: human CD26 (huCD26) expressed on 293FF cells (human, UniProt P27487 1-766); assay: FACS, 293FF cells transiently transfected with huCD26
# Experimental: The binding of all test and control antibodies to the cells was tested at a single concentration of 2.5 ug/ml. Goat-anti-human IgG F(ab)2-PE (Invitrogen, H10104) was used as secondary antibody (1:100 in FACS buffer). Ab0625 was used at 10 ug/ml and its binding was detected using Ab0250 (Becton Dickinson, 550767) (1:100 in FACS buffer). The FACS buffer containing PBS (Gibco, cat. #10010-015), 0.5% BSA (Thermo Scientific, cat. #37525), and 2 mM EDTA (Invitrogen, cat. #15575-020) was kept ice cold throughout the assay.
# The target cells were harvested, counted, and centrifuged for 5 min at 300 g at 4 °C. Cells were then resuspended in FACS buffer at a concentration of 1×10⁶ cells/ml and transferred (200,000 cells/well) to a U-bottom 96-well FACS plate (BD, cat. #353910). Cells were then centrifuged for 3 min at 300 g at 4° C. and supernatant was discarded. 50 μl of primary antibody solutions were added to the cells, mixed, and incubated for 30 min at 2-8° C. in the dark. Cells were washed by adding 150 μl FACS buffer and centrifuged for 3 min at 300 g at 4° C. Supernatant was discarded, and cells were washed again by adding 200 μl FACS buffer to the plate. Cells were then centrifuged for 3 min at 300 g at 4° C. and afterwards the supernatant was discarded. 50 μl of secondary antibody solutions were added to the cells, mixed, and incubated for 30 min at 2-8° C. in the dark. Cells were then washed by adding 150 μl FACS buffer to the plate and centrifuged for 3 min at 300 g at 4° ° C. Supernatant was discarded and cells were washed again by adding 200 μl FACS buffer to the plate and centrifuged for 3 min at 300 g at 4° C. Supernatant was discarded and cells were fixated by adding 100 μl/well ice-cold Fixation buffer (2% formaldehyde solution in PBS, Sigma-Aldrich, cat. #47608-250ML-F). Cells were incubated for 15 min on ice in the dark. Afterwards, 100 μl ice-cold PBS was added to the cells and cells were centrifuged for 3 at 300 g at 4° C. Supernatant was discarded and cells were resuspended in 120 μl FACS buffer.
# [2] = target: T1, huFAP-His recombinant protein (R&D …); assay: competition ELISA, huFAP-His coated, IgG at 0.05 ug/ml; competitor sibrotuzumab analog Fab
# Experimental: ELISA was used to investigate the competitive binding of the human anti-FAP antibody panel with Fab fragments generated from the sibrotuzumab analog to huFAP-His protein (R&D Systems cat. #3715-SE).
# The huFAP-His protein was coated (0.5 ug/ml, 50 μl/well) on two 96-wells ELISA plates (Certified Nunc-Immuno Maxisorp F96, Greiner Bio-One, cat. #655061). The plates were sealed (EASYseal, Greiner, cat. #676001) and incubated overnight at 4° ° C. The plates were washed with PBS/0.05% Tween 20 (PBS, Gibco, cat. #10010-015) (Tween 20, Merck, cat. #8.22184.0500) using the ELISA plate washer (BioTek 405 TS). Afterwards, the plates were emptied. Fab fragments of sibrotuzumab analog (25 ug/ml) were incubated on one plate for 30 min at RT, whereas the second plate was incubated with 300 μl/well PBS/2% BSA block buffer (BSA, Sigma, cat. #A3294-500 g) for 1 hour at RT. Afterwards, the plates were emptied. Antibodies from the human anti-FAP panel (0.05 ug/ml, 50 μl/well) were added, plates were covered with a EASYseal, and incubated for one hour at RT. The plates were washed three times with wash buffer using the ELISA washer and emptied. […] The plates were then washed three times with wash buffer using the ELISA washer and emptied. BD OptEIATMB Substrate Reagent Set (BD, cat. #555214) was then added to the wells (50 μl/well) and developed for maximal 10 min. Afterwards, 1 M H2SO4 (50 μl/well) was added to the wells to stop the staining reaction (color changes from blue to yellow). The plates were then measured using an ELISA plate reader (BioTek ELx808).
# Sequence of human CD26 (huCD26) expressed on 293FF cells (P27487 whole entry): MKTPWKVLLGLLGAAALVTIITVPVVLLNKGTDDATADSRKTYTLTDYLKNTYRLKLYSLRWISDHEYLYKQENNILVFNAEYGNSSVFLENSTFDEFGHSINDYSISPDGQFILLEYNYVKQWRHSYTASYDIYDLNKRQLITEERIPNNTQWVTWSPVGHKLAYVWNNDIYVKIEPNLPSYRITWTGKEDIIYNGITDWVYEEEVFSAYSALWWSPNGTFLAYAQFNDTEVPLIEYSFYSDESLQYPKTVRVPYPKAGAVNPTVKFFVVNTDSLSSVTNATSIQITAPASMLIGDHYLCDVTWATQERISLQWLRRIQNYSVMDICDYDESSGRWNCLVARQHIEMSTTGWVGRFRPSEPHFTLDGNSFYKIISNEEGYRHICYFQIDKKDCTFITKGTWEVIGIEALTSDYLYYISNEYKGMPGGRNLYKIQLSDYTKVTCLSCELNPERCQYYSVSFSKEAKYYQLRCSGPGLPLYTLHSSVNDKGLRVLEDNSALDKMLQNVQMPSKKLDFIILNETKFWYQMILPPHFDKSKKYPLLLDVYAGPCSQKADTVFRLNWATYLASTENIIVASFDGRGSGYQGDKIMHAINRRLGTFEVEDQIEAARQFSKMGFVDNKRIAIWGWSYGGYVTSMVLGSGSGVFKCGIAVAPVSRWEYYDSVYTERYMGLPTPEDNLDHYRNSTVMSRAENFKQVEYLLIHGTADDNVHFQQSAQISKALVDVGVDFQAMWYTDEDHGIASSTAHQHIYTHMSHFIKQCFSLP
Binder,binding result [1],binding result [2]
"anti-human FAP bivalent monospecific IgG comprising heavy chain variable region SEQ ID NO: 69 (antibody, V domains shown, IgG1 format, common light chain VK1-39/JK1; also called human/mouse cross-reactive FAP IgG) VH: EVQLVETGGGLIQPGGSLRLSCAASGFTVSSNYMSWVRQAPGKGLEWVSVIYSGGSTYYADSVKGRFTISRDNSKNTLYLQMNSLRAEDTAVYYCARGPTDAYPYLDYLWGQGTLVTVSS VL: not shown",no binding (tested: 2.5 ug/ml),–
"anti-human FAP bivalent monospecific IgG comprising heavy chain variable region SEQ ID NO: 11 (antibody, V domains shown, IgG1 format, common light chain VK1-39/JK1) VH: EVQLVESGGGLVQPGGSLRLSCAASGFTFSSYAMIWVRQAPGKGLEWVSAISGSGGYTFNADSVKGRFTMSRDNSKNTLYLQMNSLRAEDTAVYYCAKRDGGYEGGAFDIWGQGTLVTVSS VL: not shown",no binding (tested: 2.5 ug/ml),binds
"anti-human FAP bivalent monospecific IgG comprising heavy chain variable region SEQ ID NO: 19 (antibody, V domains shown, IgG1 format, common light chain VK1-39/JK1) VH: EVQLVESGGGLVKPGGSLRLSCAASGFPFNYAWMSWVRQAPGKGLEWVGRIKPKTSGGATDYAAPVKDRFTISRDDSRNTLYLQMNSLKTEDTAVYYCSAREDIWNFFFDLWGQGTLVTVSS VL: not shown",no binding (tested: 2.5 ug/ml),binds
"anti-human FAP bivalent monospecific IgG comprising heavy chain variable region SEQ ID NO: 15 (antibody, V domains shown, IgG1 format, common light chain VK1-39/JK1) VH: QLQLQESGPGLVKPSETLSLTCTVSGGSISSSSYFWAWIRQPPGKGLEFIGNIYYSGSTYYNPSLKSRVTISVDTSKNQFSLKLSSVTAADTAVYYCARPSYYGSGNYYFAFWGQGTLVTVSS VL: not shown",no binding (tested: 2.5 ug/ml),binds
